Assay results from patent publication US20090053198A1 (published 2009).

Target: T1, human E-selectin on CHO-E cells (human, UniProt P16581 22-610)
T1 construct: whole, on cells
T1 sequence (looked up): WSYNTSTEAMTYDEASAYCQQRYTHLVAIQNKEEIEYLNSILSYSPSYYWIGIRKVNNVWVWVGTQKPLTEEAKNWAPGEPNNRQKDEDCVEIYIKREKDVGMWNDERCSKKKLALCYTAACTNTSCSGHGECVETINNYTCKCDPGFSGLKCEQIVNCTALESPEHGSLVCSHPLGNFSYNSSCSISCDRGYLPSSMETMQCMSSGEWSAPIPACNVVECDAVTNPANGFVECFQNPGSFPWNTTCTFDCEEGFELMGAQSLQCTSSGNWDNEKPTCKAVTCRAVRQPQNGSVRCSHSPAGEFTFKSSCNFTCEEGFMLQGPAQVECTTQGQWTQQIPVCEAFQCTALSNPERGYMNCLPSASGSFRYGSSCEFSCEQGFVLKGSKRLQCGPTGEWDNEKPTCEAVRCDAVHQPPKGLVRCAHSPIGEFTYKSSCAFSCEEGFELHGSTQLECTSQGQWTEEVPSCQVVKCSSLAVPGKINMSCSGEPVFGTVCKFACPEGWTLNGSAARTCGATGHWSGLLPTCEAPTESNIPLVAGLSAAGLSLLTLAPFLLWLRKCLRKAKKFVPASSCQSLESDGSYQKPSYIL
Assay: blot rolling assay: CHO-E perfused at 0.6 dyne/cm^2 over blotted ML-M membrane glycoproteins (˜130 kDa band)
Text: Blot rolling assays: The blot rolling assay has been described previously²⁹. CHO-E were washed in PBS, and resuspended to 2×10⁶ cells/ml in assay buffer/10% glycerol. […] These blots were then placed in the parallel plate flow chamber, and CHO-E were perfused into the chamber at a shear stress of 0.6 dyne/cm²; an adjustment in the volumetric flow rate was made to account for the increase in viscosity due to the presence of 10% glycerol in the assay buffer. Molecular weight standards (SeeBlue® Plus2 prestained molecular weight standard; Invitrogen Corporation; Carlsbad, Calif.) were co-electrophoresed on adjacent lanes and served as a guide to aid placement of the flow chamber over the stained bands of interest. The number of tethering and rolling CHO-E was tabulated as function of the molecular weight region and compiled into an adhesion histogram. Negative controls were prepared by adding 10 mM EDTA to the assay buffer to chelate Ca²⁺ required for binding or treating CHO-E with anti E-selectin mAb, 68-5411, at 4° C. for 15 min. prior to use in adhesion assays.
For these experiments, we could not assess binding interactions over the entire lane due to the length restriction of the flow chamber; because the differences in HECA-reactivity in proteins from ML and NL clustered within mobilities encompassing 30 kDa-170 kDa, we set the field view over this range. […]

B1: PSGL-1 (P-selectin glycoprotein ligand-1) of G-CSF mobilized leukocytes (ligand, human, UniProt Q14242 42-412, looked up)
chain: QATEYEYLDYDFLPETEPPEMLRNSTDTTPLTGPGTPESTTVEPAARRSTGLDAGGAVTELTTELANMGNLSTDSAAMEIQTTQPAATEAQTTQPVPTEAQTTPLAATEAQTTRLTATEAQTTPLAATEAQTTPPAATEAQTTQPTGLEAQTTAPAAMEAQTTAPAAMEAQTTPPAAMEAQTTQTTAMEAQTTAPEATEAQTTQPTATEAQTTPLAAMEALSTEPSATEALSMEPTTKRGLFIPFSVSSVTHKGIPMAASNLSVNYPVGAPDHISVKQCLLAILILALVATIFFVCTVVLAVRLSRKGHMYPVRNYSPTEMVCISSLLPDGGEGPSATANGGLSKAKSPGLTPEPREDREGDDLTLHSFLP
modifications: sialofucosylated (HECA-452-reactive) glycans; positions not given
notes: Native glycoprotein from donor cells; seen as ˜220 kDa dimer and ˜130 kDa monomer on blots; also called ˜220 kDa band (dimer); ˜130 kDa band (monomer)
Q: Does B1 bind?
A: binds
